# Experimental data taken from article PMC12980445.
# pKd: −log10 of the molar value.
# Test system: MRA_0776 (Mycobacterium tuberculosis H37Ra)
# Assay: BLI
# Details: […] (pH not stated); BLI: PBST, 0.02% Tween-20, 30 C
substance,measurement,value
dosR promoter (SN441-BIO),pKd,5.54
